In PMC3189932, “Viral Double-Strand RNA-Binding Proteins Can Enhance Innate Immune Signaling by Toll-Like Receptor 3”:

Columns and labels:
R-cp = R-cp (Ross River virus, UniProt P13890 1-270); test: UV crosslinking; 4 mM Mg2+; 50 mM Tris-HCl pH 7.5, 4 mM MgCl2, 50 mM NaCl, 1 mM DTT; 400 ng protein, 1 pmol RNA; UV 1200 mJ 3 min then SDS-PAGE (crosslinking); nondenaturing stacked 5/20%; settings: protein: recombinant; label: Cy5; hairpin, 11-bp stem, GNRA tetraloop
H-cp183 = H-cp183 (Hepatitis B virus, UniProt P03147 1-183); test: as above; settings: protein: recombinant; chain copies: 2; label: Cy5; hairpin, 11-bp stem, GNRA tetraloop
B-cp = target: T1, B-cp (Brome mosaic virus, UniProt P03602 1-189); test: as above; settings: protein: native; label: Cy5; hairpin, 11-bp stem, GNRA tetraloop
T1 sequence: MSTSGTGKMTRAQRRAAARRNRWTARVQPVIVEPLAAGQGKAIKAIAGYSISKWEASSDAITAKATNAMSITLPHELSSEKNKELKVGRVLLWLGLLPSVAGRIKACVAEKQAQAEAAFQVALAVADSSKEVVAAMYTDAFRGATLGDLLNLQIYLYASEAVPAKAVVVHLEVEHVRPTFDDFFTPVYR

H-cp149 = H-cp149 (Hepatitis B virus, UniProt P03147 1-149); test: UV crosslinking; 4 mM Mg2+; no shift; 50 mM Tris-HCl pH 7.5, 4 mM MgCl2, 50 mM NaCl, 1 mM DTT; 400 ng protein, 1 pmol RNA; UV 1200 mJ 3 min then SDS-PAGE (crosslinking); nondenaturing stacked 5/20%; settings: protein: recombinant; chain copies: 2; label: Cy5; hairpin, 11-bp stem, GNRA tetraloop
Sequence of H-cp149 (P03147 1-149): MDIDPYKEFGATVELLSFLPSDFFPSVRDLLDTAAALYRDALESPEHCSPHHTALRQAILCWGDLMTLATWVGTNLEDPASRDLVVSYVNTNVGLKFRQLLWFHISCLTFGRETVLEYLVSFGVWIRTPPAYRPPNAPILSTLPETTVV

Sequence of H-cp183 (P03147 whole entry): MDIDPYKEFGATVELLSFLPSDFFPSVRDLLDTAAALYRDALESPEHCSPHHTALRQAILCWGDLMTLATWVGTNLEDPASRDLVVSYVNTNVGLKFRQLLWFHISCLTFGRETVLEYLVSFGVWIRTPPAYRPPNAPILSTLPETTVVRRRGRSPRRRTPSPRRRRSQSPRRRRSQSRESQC
Sequence of R-cp (P13890 1-270): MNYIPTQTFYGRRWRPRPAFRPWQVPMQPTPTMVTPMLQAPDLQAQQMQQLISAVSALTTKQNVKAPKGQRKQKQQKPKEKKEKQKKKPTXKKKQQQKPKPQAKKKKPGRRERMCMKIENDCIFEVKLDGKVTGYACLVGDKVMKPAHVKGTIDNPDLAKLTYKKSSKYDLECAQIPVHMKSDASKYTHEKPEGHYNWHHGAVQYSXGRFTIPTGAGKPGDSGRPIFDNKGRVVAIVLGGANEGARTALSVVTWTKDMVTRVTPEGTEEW

CCAAGUCAUUCGCAAGAGUGGCUUGG (structured_RNA) [SL26]: binds (R-cp); binds (H-cp183); binds (B-cp). CCAAGUCAUUCGCAAGAGUGGCUUGG (structured_RNA) [SL26]: no binding (H-cp149).
